T1: recombinant CD135 (Flt3) (UniProt Q00342 28-544)
T1 sequence (looked up): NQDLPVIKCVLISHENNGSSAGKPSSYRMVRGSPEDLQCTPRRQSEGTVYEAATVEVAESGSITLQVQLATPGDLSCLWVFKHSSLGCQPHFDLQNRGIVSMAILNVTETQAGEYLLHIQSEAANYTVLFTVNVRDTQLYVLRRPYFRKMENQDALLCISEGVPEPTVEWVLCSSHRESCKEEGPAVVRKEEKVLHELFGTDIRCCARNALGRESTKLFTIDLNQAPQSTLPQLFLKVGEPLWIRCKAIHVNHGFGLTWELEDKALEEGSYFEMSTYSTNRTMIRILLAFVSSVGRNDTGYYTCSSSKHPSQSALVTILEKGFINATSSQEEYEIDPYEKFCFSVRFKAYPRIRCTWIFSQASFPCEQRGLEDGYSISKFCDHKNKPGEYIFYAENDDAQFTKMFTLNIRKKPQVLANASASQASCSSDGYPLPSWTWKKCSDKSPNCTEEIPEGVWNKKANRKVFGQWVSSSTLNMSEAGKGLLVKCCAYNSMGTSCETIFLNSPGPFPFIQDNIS

B1: native, soluble murine Flt3L (WT) (ligand, mouse, UniProt P49772 27-189, looked up)
chain: GTPDCYFSHSPISSNFKVKFRELTDHLLKDYPVTVAVNLQDEKHCKALWSLFLAQRWIEQLKTVAGSKMQTLLEDVNTEIHFVTSCTFQPLPECLRFVQTNISHLLKDTCTQLLALKPCIGKACQNFSRCLEVQCQPDSSTLLPPRSPIALEATELPEPRPRQ

Columns and labels:
recombinant CD135 (Flt3) [1] = target: recombinant CD135 (Flt3) (UniProt Q00342); assay: ELISA
recombinant CD135 (Flt3) [2] = target: T1, recombinant CD135 (Flt3); assay: ELISA

Row | Molecule | Kd (recombinant CD135 (Flt3) [1]) [nM] | Kd (recombinant CD135 (Flt3) [2]) [nM]
1 | Flt3L-SA (murine Flt3L fused at its C terminus to murine serum albumin through a (G4S)2 linker) | 0.16 | 
2 | B1 |  | 0.16

From article doi:10.1101/2024.03.21.586168 (bioRxiv, 2024)
